# According to the supplement of paper PMC9170038:
# Key:
# [1] = tested on: MS2 coat protein; assay: apparent KD of MS2 coat protein, switch ON state; designed switch direction (-1 OFF switch, 1 ON switch): 1; higher = weaker reporter binding; settings: FMN input: 0 or 200 uM; Eterna round: R93 (includes R88 designs)
# Outline: (§1)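 Apparent KD per design is the median of normalised cluster binding-curve fits. Designed RNA switches transcribed on-chip from Illumina sequencing clusters were titrated with SNAP-549-labelled MS2 coat protein in twofold steps from 0.7 or 1.5 nM to 3 µM, with 0.8–1.5 h down to 10–20 min per step. Buffer: 100 mM Tris-HCl pH 7.5, 80 mM KCl, 4 mM MgCl2, without or with constant ligand.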
# [2] = tested on: MS2 coat protein; assay: apparent KD of MS2 coat protein, switch OFF state (with FMN for OFF switches, without FMN for ON switches); designed switch direction (-1 OFF switch, 1 ON switch): 1; higher = weaker reporter binding; settings: FMN input: 0 or 200 uM; Eterna round: R93 (includes R88 designs)
# Outline: as §1
Sequence,apparent KD of MS2 coat protein [1],apparent KD of MS2 coat protein [2]
AACAUACAUGAGGAUCACCCAUGUUCCGGCAGGUCAGGAUAUGUAUCGAAAGAGUUAUAAACAGAAGGGACAUAAA [JR_SS001_Sub010],32.4 nM,56.9 nM
AACCGGGAGAAGCAGGAUAUUGCCUCUUCAACAUGAGGAUCACCCAUGUAAGUAAAUUGACGAUACAAGAAGGGCUGCUCCUUAC [Raatgees],30.5 nM,74.3 nM
AAGAAACAUGAGGAUCACCCAUGUAAAUAAAUCUCAGGAUAUCGUACAUGGAAGAUCUAACGAGAAGGGAGAAGAA [Pariah 1 (MS2 Riboswitches - Same State 1)],85.7 nM,63.4 nM
AAGAAACAUGAGGAUCACCCAUGUAAGAUAAACACAGGAUAUGCGAAAAUAAAUAAAUAAGCAGAAGGGUGAAGAA [Mat - Same State 1 - Tesla mod - 66],14.8 nM,42.4 nM
AAGAAACAUGAGGAUCACCCAUGUAGAAAUAUGGGAGGAUAUACAAGGACGAAAGUCAAGGUAGAAGGCCUAAGAA [Mat - Same State 1 - Meechl mod - D132],20.7 nM,112 nM
"AAGAAACAUGAGGAUCACCCAUGUCAAGAGAGACUAGGAUAUCUGAAUUAAUUAAAUUAAGGAGAAGGAGUGAAAA [71%, Same state of confusion2, 2]",35.9 nM,88.6 nM
AAGAAACAUGAGGAUCACCCAUGUGGAAAUAUGGGAGGAUAUACAAGGACGUAAGUCAAGGUAGAAGGCCUAAGAA [Mat - Same State 1 - Meechl mod - D138],21.5 nM,134 nM
AAGAAAGUUUACGAGGAUAUGUUCCGCAUAACAUGAGGAUCACCCAUGUGAACAAGAAAGGCGACGCAGAAGGCGUGAGCAAAGA [Atanansori],26.1 nM,403 nM
AAGAGACAUGAGGAUCACCCAUGUAGGAUUAUGGGAGGAUAUACAAAGACGAGAGUCAGAGUAGAAGGCCUAGGAA [salish99-ss1-129(!)],24.5 nM,65.1 nM
AAGAUACAUGAGGAUCACCCAUGUCACCUCACACGAGGAUAUCUGUGCAGUACUCAGUACGGAGAAGGCGUGGAAA [Mat - Same State 1 - Hyphema mod - D98],25 nM,56.4 nM
AAUACACAUGAGGAUCACCCAUGUAGAAAGAAGGCAGGAUAUCAGAUCCACAUGUGAUAAUGAGAAGGGCCAAUAA [SS 1 Tesla 9],21.1 nM,102 nM
AAUAGACAUGAGGAUCACCCAUGUAGAAUUAUGGGAGGAUAUACAAAGACGAGAGUCAGAGUAGAAGGCCUAGGAA [salish99-ss1-148],23.6 nM,71.5 nM
AAUAGACAUGAGGAUCACCCAUGUAGAAUUAUGGGAGGAUAUACAAAGACGAGAGUCAGAGUAGAAGGCCUAGGAU [salish99-ss1-149],24.7 nM,51.8 nM
AAUAUACAUGAGGAUCACCCAUGUUAGGUGGGACUAGGAUAUCAAAAUACAUAAUGAACAUGAGAAGGAGUAUCAA [JR_SS001_Sub403],140 nM,249 nM
AAUAUACAUGAGGAUCACCCAUGUUAGGUGGGACUAGGAUAUCAGAGUACAUAAUGAACAUGAGAAGGAGUAUCAA [JR_SS001_Sub404],115 nM,110 nM
AAUAUACAUGAGGAUCACCCAUGUUUUAAUAACGCAGGAUAUACGGGUGAAAACAGCAUAGUAGAAGGGCGAAAAA [SameState1 Malc#1],31.8 nM,106 nM
AAUAUACAUGAGGAUCACCCAUGUUUUAAUAACUGAGGAUAUACGGGUGAAAACAGCAUAGUAGAAGGCAGAUAUA [SameState1 Malc#6],37.8 nM,102 nM
AAUAUAUUAUUUAAGGAUAUCAUAGGAAACACAUGAGGAUCACCCAUGUGGGAAACCUGGUCGGGUGAGAAGGUGGAUAAUAUAU [Samwise Clockwise 35 - Jieux - Same State 2],13.8 nM,35.2 nM
AAUCCAAAUAGUCAGGAUAUCAAAAAUAAGACAUGAGGAUCACCCAUGUACUAAGUAAAAGUAAAUGAGAAGGGACAGGGUGAAA [JR_SS002_Sub402],138 nM,145 nM
AAUGAACAUGAGGAUCACCCAUGUUCUAACAGUUGAGGAUAUGUGGGUGAAAAUAGCACGGCAGAAGGCGAGUGUA [SameState1 Malc#20],119 nM,54.6 nM
AAUUGACAUGAGGAUCACCCAUGUAGGAUUAUGGGAGGAUAUACAAAGACGAGAGUCAGAGUAGAAGGCCUAGGAA [salish99-ss1-146],25 nM,82.1 nM
ACUAUACAUGAGGAUCACCCAUGUUAGCUGGGCGAAGGAUAUGUAGAUGGAUAAAAAUAUGCAGAAGGUCGAUAAC [JR_SS001_Sub210],39.5 nM,77.2 nM

Sequence,apparent KD of MS2 coat protein [1],apparent KD of MS2 coat protein [2]
"AGAAAUAAAAGAGAGGAUAUCCUAAAGAAAACAUGAGGAUCACCCAUGUAAAAGAAAAUAAAAUGGGAGAAGGCUCAAAAUAAAG [80%, More Helter Skelter 2]",15.4 nM,39.5 nM
AGAAAUAAAAGCUAGGAUAUCCAAAAGAAAACAUGAGGAUCACCCAUGUGAAAGAAAAUAAAAUGGGAGAAGGAGCAAAAUAAGA [Topaz 51],17.5 nM,31 nM
AGAAAUAAACCGAAGGAUAUCCAAACCUAAACAUGAGGAUCACCCAUGUAAAAGAAAAUAAAAUGGGAGAAGGUCGGAAAUAAGA [Designing denovo 13],17.7 nM,25.3 nM
AGAAGACAUGAGGAUCACCCAUGUGGGAAUAUGGGAGGAUAUACAAAGACGAGAGUCAGAGUAGAAGGCCUAGGCA [salish99-ss1-111],47 nM,129 nM
AGAAGACAUGAGGAUCACCCAUGUGGGAAUAUGGGAGGAUAUACAAAGACGAGAGUCAGAGUAGAAGGCCUAGGUA [salish99-ss1-109],32.5 nM,99.5 nM
AGAAUAAAAACAGAGGAUAUCCAAAAGAAAACAUGAGGAUCACCCAUGUAAAAGAAAAUAAAAUGGGAGAAGGCUGAAAUAAAGA [Mat - Same State 2 - Eli mod - D97],14.9 nM,33.2 nM
AGGAAACAUGAGGAUCACCCAUGUAAAAGGUGGUUAGGAUAUGCAAAAAGAAAAAGAAAAGCAGAAGGGACAAGAA [mod of top voted: #1],351 nM,600 nM
AGGAAACAUGAGGAUCACCCAUGUAGAAAUAUGGGAGGAUAUACAAAGACGAAAGUCAAAGUAGAAGGCCUAAAAA [Mat - Same State 1 - Mod - D151],17.6 nM,57.1 nM
AGGAGACAUGAGGAUCACCCAUGUGAGAAGAGGCGAGGAUAUCGAAAAAAAGAAAGAAAACGAGAAGGCGCGAGAA [salish99-SS1-015],37.6 nM,64.5 nM
AGGAGACAUGAGGAUCACCCAUGUGAGAAGAGGCGAGGAUAUCGAAAGAAAGAAGAGAAACGAGAAGGCGCGAGCG [salish99-SS1-028],26.7 nM,34.3 nM
AGGAGACAUGAGGAUCACCCAUGUGAGAAGAGGCGAGGAUAUCGAAAGAAAGAAGAGAAACGAGAAGGCGCGAGUG [salish99-SS1-026],28.1 nM,40.9 nM
AUAAAACAUGAGGAUCACCCAUGUAGACACGUGGGAGGAUAUACUAGAUCGAAAGAUCUAGUAGAAGGCCUUCGUA [Mat - Same State 1 - JL mod - D94],23.7 nM,38.4 nM
AUAAAACAUGAGGAUCACCCAUGUCCGACAAAUCAAGGAUAUGAGAGCCUAACCAGGCUGUUAGAAGGUGAAAGAU [Riteat],229 nM,192 nM
"AUAAAAGAAGCGAAGGAUAUCCAAAGGACCACAUGAGGAUCACCCAUGUAAAGAAAGAAAAAAUGGGAGAAGGUCGCAAAGAAUA [73%, More Fisker Same State 2, D3, 7]",74.9 nM,97.4 nM
AUAAAAUACUGUGAGGAUAUCCAUAAUAAAACAUGAGGAUCACCCAUGUGUAGAUAAUAAUAAUGGGAGAAGGCACAUAAUAAAU [SS2 M41],24.2 nM,27.6 nM
AUAAAUAAAAGCGAGGAUAUCCAAAAAAAAACAUGAGGAUCACCCAUGUAAAAGAAAAUAAAAUGGGAGAAGGCGCAAAAUAAAU [SS2 M 9],21.2 nM,7.54 nM
AUAACAACGUAUGAGGAUAUCCUUAAUAAAACAUGAGGAUCACCCAUGUGAAUAAAAUAACAAUUGGAGAAGGCAUACGUACAAU [SS 2 M 52],15.4 nM,20.8 nM
AUAACACAUGAGGAUCACCCAUGUAGAUCCACGUCAGGAUAUGCAAAGAAAAUAAACAAAGCAGAAGGGACAAUAA [SS 1 Tesla 1],47.3 nM,49.6 nM
AUAAUAAUAAGGUAGGAUAUGCUAAAGUAAACAUGAGGAUCACCCAUGUAAAGAAAAAAACUCAUGUAGAAGGGCCAGAAAUAAA [moonwalk 4],80.1 nM,71.5 nM
AUUCCAACUAGUCAGGAUAUCAGGCGUAAGACAUGAGGAUCACCCAUGUACUUAGUACAAGUAACUGAGAAGGGACAGGGUGUAA [JR_SS002_Sub408],20.3 nM,25.3 nM
CAUCAUGCGCCUAAGGAUAUGUCUCACAAGACAUGAGGAUCACCCAUGUAGAAUAAAUAAACGAUGCAGAAGGUGGAGUGCAUGC [Vetimaor],56.7 nM,361 nM
